In series [1] the test system is U87MG tumour xenografts. Details: species or system BALBc nu/nu male mice. Conditions: mouse, in vivo.
Description: Five-week-old BALBc nu/nu male mice (Japan SLC, Inc., Hamamatsu, Japan) were xenografted by subcutaneous injection of U87MG cells (5 × 10^6 cells per 50 μL of culture medium) into their right hind legs. The mice were subjected to biodistribution studies when the tumour weight reached 0.1−0.5 g.
Mice bearing U87MG tumour xenografts were injected via the tail vein with 100 μL of [^111In]In-DOTA-Ahx-R954 (30–74 kBq; 0.01–0.02 nmol) and were sacrificed and dissected 1, 4, and 24 h after administration. […] R954 was co-injected with [^111In]In-DOTA-Ahx-R954, and mice were sacrificed and dissected 1 and 4 h after administration. The tissues of interest were removed and weighed, and radioactivity was determined using an auto-well gamma counter. The results are presented as a percentage of the injected dose per gram (% dose/g).
In series [2] the target is T1, B1R (Homo sapiens, UniProt P46663).
T1 sequence (P46663 1-353): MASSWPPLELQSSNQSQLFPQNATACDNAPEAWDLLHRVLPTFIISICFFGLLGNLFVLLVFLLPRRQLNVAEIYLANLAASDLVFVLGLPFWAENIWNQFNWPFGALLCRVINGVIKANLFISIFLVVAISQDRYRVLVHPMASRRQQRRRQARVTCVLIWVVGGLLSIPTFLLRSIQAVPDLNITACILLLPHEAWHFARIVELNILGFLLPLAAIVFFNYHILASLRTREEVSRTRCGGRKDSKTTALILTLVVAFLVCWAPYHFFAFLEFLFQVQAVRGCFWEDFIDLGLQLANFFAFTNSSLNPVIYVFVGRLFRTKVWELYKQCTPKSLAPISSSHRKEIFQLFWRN
The series is described as follows: Saturation binding assay with Scatchard analysis on U87MG cells. Details: could detect B1R endogenously expressed in glioblastoma cells; host or cells: U87MG human glioblastoma cells (intact, adherent). Conditions: tracer 0.7-358 nM, NSB with 100 µM R954, Scatchard analysis, mean of three independent experiments. The method, then: The affinity of [^111In]In-DOTA-Ahx-R954 for B1R in the cells was measured using an R954 saturation assay with increasing concentrations of [^111In]In-DOTA-Ahx-R954 (range 0.7–358 nM). The Scatchard plot was used to estimate the Kd and Bmax values. The parameters were presented as means of three independent experiments (one assay performed on type I collagen-coated plates and two assays performed on Poly-D-Lysine plates).

Series [3] has as its target T1, B1R. The arrangement: could detect B1R endogenously expressed in glioblastoma cells. Conditions: B1R+ HEK293T cell membrane; read-out: binding affinity (Kd); cited from earlier work. The source says: (§1) Our study has several potential limitations. […] Although we could not evaluate the diagnostic utility of [^111In]In-DOTA-Ahx-R954 by comparing it with previously reported probes for SPECT and PET using parameters obtained under the same experimental conditions, improving the ...

Series [4] concerns the target T1, B1R. Details: could detect B1R endogenously expressed in glioblastoma cells; host or cells: U87MG human glioblastoma cells (intact, adherent). Conditions: lung fibroblast cell membrane; read-out: binding affinity (Kd); cited from earlier work.
From the text: as §1

Series [5] deals with U251MG cells. The series is described as follows: Blocking of [^111In]In-DOTA-Ahx-R954 cell accumulation by B1R antagonist or agonist. Conditions: 100 µM blocker, 120 min, n = 4. The format is cell-based, human. On the procedure: (§2) Human glioblastoma cell lines U87MG and U251MG were obtained from the American Type Culture Collection (Manassas, VA, USA) and kept under standard cell culture conditions (5% CO2, 37 °C). Cells were cultured in Eagle’s minimum essential medium (E-MEM; FUJIFILM Wako Pure Chemical Co.) supplemented with 10% v/v foetal bovine serum (BioWest S.A.S, Nuaillé, France), 1% v/v nonessential amino acids (FUJIFILM Wako Pure Chemical Co.), 1 mM sodium pyruvate (FUJIFILM Wako Pure Chemical Co.), and 1% v/v penicillin–streptomycin (10,000 unit-10 mg/mL; FUJIFILM Wako Pure Chemical Co.). Cells were seeded at a density of 1 × 10^5 cells/well in Poly-D-Lysine 24-well plates (Corning Inc., Corning, NY, USA). After 24 h, the medium was removed, and the cells were washed with 500 μL of 0.01 M PBS (+) (FUJIFILM Wako Pure Chemical Co.) and incubated at 37 °C in 500 μL of Hanks Balanced Salt Solution (+) (HBSS (+); FUJIFILM Wako Pure Chemical Co.) for 10 min. […] The value at 0 min was determined by an assay performed using the same protocol as that used immediately after removing the incubation solution. Cell lysate radioactivity was measured using an auto-well gamma counter (2470 WIZARD^2; PerkinElmer, Inc., Shelton, CT, USA), and the protein content of the lysates was measured using a Pierce™ BCA protein assay kit (Thermo Fisher Scientific, Inc., Waltham, MA, USA). […]

Series [6] concerns U87MG cells. The description is as above. Format: cell-based, human. Conditions: 100 µM blocker, 120 min, n = 4. The method, then:
as §2

Series [7] relates to B1R. Conditions: B1R agonist; cited from earlier work.

The values below come from paper PMC11279923, “Assessment of Radiolabelled Derivatives of R954 for Detection of Bradykinin B1 Receptor in Cancer Cells: Studies on Glioblastoma Xenografts in Mice” (Pharmaceuticals, 2024).

Where two headings read alike, the source gives them in different places. Non-standard residues stand in square brackets, D forms with d. Residues, ends and D or L forms follow the SMILES beside them. *: point of attachment. DOTA = O=C(O)CN1CCN(CC(=O)O)CCN(CC(=O)*)CCN(CC(=O)O)CC1; Oic = O=C(O)[C@@H]1C[C@@H]2CCCC[C@@H]2N1; d2Nal = N[C@H](Cc1ccc2ccccc2c1)C(=O)O; αMeF = C[C@](N)(Cc1ccccc1)C(=O)O; Orn = NCCC[C@H](N)C(=O)O; Ahx = NCCCCCC(=O)O

Usually Kd stands for a measure of binding affinity in units of concentration. A word on the pEC50: it is the EC50 on a negative log10 scale, so that one unit is a factor of ten.

As to `CC[C@H](C)[C@H](NC(=O)[C@@H](Cc1ccc2ccccc2c1)NC(=O)[C@H](CO)NC(=O)[C@](C)(Cc1ccccc1)NC(=O)CNC(=O)[C@@H]1CCCN1C(=O)[C@@H]1C[C@@H]2CCCC[C@@H]2N1C(=O)[C@H](CCCNC(=N)N)NC(=O)[C@H](CCCN)NC(=O)CCCCCNC(=O)CN1CCN(CC(=O)O)CCN(CC(=O)O)CCN(CC(=O)O)CC1)C(=O)O` [[^111In]In-DOTA-Ahx-R954, metal not drawn] ({DOTA-Ahx}-[Orn]R[Oic]PG[αMeF]S[d2Nal]I-OH), in series [1], the blood-brain barrier penetration result was “poor”, the “reduction of radioactivity level in plasma compared to 1 h” value stood at 98% and the “reduction of radioactivity level in tumour compared to 1 h” value was 48%. The molecule further showed a Kd in series [2] of 54.1 ± 18.9 nM.
For [^3H](des-Arg^10, Leu^9)-kallidin, the figures for the Kd in series [3] and in series [4] were 1.9 ± 0.5 nM and 0.33 ± 0.07 nM, respectively.
For the molecule [des-Arg^10]-kallidin, the “change in accumulated radioactivity in blocking study” value in series [5] is “not in U251MG cells”; in series [6], “significant decrease”. Besides, the pEC50 in series [7] is 9.7.
